Experimental data reported in PMC2819980.

Substrate: NCCCP(=O)(O)OP(=O)(O)OC[C@H]1O[C@@H](n2ccc(N)nc2=O)[C@H](O)[C@@H]1O
Test: steady-state kinetics
Type: biochemical, Streptomyces rubellomurinus

B1: FrbG (Streptomyces rubellomurinus) (protein)
chain: MTHYATVICGGGPAGVSAVVAAAVQGRLEEFLDRGVLLVEATGRAGSGSIPHYGIRANSLGSAFLECLDGPAGSGLLAGLADSAEARELRGWADEYPPLPVVGAFLTLVGERVVDALRRHPRCDALLGHRVVEVRTGPERATVLLSGPDGELSHTGDRVLLTMGGRERTELAPDALAALVERRPGLRVLSSGEVITDPSWHPDAASPHRALGSIAVLGGAHSAWAVAAHLARLARAGWFAGPVEVTVVERRLPPIFYFSAAEARAEGYRWDEADVCGPSGRVHRFGGLRGPARELARQVMGLAAEKAPDGFGQVVLDGPWTAEALEAAVGDADLVITALGYDARLPRLLGADGRELELARPRGAVDTGRDGLPGLAAGGRAERLVMYGLGAGLVPSEETGGEPGYRGRLDGVWVYQHDIGAVILRALLANDRTEDGR
Km: 15.1 ± 1.5 µM
kcat: 0.0987 ± 0.00633 s⁻¹
kcat/Km: 6520 M⁻¹ s⁻¹
